In IntAct's records for PubMed 11231575:

Molecular target: arp3_bovin ACTR3 (UniProt P61157)

effect of a mutation on the interaction	Substance
disrupting interaction	Src substrate cortactin (Mus musculus), Q60598 W22A
disrupting interaction	Src substrate cortactin (Mus musculus), Q60598 D20G;D21A
